Assay results: the supplement of paper PMC9112550, “Optimization of the antimicrobial peptide Bac7 by deep mutational scanning” (BMC Biology, 2022)

Tested on: Escherichia coli TOP10
Assay: shrunken log2 fold change of peptide-encoding DNA abundance (4.5 h post-induction vs induction); higher = less antimicrobial activity (less host growth inhibition)
Details: time post-induction: 4.5 h; library: site-saturation at positions 5, 18, 19, 20
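Further: peptides expressed intracellularly from a pBAD plasmid library in pooled LB shake-flask culture, induced with 0.3% L-arabinose, DNA abundance read by NGS, three biological replicates, DESeq2 with apeglm shrinkage.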

Sequence	shrunken log2 fold change
RRIRERPPRLPRPRPRPTERPRP	0.0425
RRIRERPPRLPRPRPRPMRPPRP	0.772
RRIRGRPPRLPRPRPRPQLHPRP	0.231
RRIRFRPPRLPRPRPRPRHKPRP	0.202
RRIRHRPPRLPRPRPRPCNAPRP	0.0746
RRIRERPPRLPRPRPRPRNWPRP	-0.0255
RRIRKRPPRLPRPRPRPIRLPRP	-0.0783
RRIRHRPPRLPRPRPRPDQVPRP	-0.0632
RRIRFRPPRLPRPRPRPQVYPRP	-0.167
RRIRHRPPRLPRPRPRPWNHPRP	-0.0561
RRIRKRPPRLPRPRPRPCNNPRP	-0.474
RRIRDRPPRLPRPRPRPPHTPRP	0.198
RRIRFRPPRLPRPRPRPYYLPRP	-0.392
RRIRHRPPRLPRPRPRPNDKPRP	-0.526
RRIRKRPPRLPRPRPRPTVRPRP	0.899
RRIRARPPRLPRPRPRPYKLPRP	-0.467
RRIRLRPPRLPRPRPRPQCYPRP	-0.172
RRIRARPPRLPRPRPRPVRWPRP	0.88
RRIRHRPPRLPRPRPRPLDCPRP	-0.384
RRIRNRPPRLPRPRPRPGYGPRP	-0.0142
RRIRVRPPRLPRPRPRPMLLPRP	-0.322
RRIRWRPPRLPRPRPRPAPMPRP	0.615

Sequence	shrunken log2 fold change
RRIRARPPRLPRPRPRPRQDPRP	0.34
RRIRGRPPRLPRPRPRPETRPRP	0.109
RRIRQRPPRLPRPRPRPYETPRP	-0.427
RRIRKRPPRLPRPRPRPYIHPRP	-0.227
RRIRHRPPRLPRPRPRPFSHPRP	-0.254
RRIRQRPPRLPRPRPRPEGAPRP	0.852
RRIRWRPPRLPRPRPRPRDAPRP	0.632
RRIRVRPPRLPRPRPRPNWTPRP	0.0136
RRIRDRPPRLPRPRPRPTYKPRP	-0.529
RRIRKRPPRLPRPRPRPNQEPRP	-0.0316
RRIRSRPPRLPRPRPRPVILPRP	-0.0746
RRIRVRPPRLPRPRPRPKQNPRP	0.385
RRIRNRPPRLPRPRPRPRNHPRP	-0.0174
RRIRRRPPRLPRPRPRPDMWPRP	0.103
RRIRVRPPRLPRPRPRPMQNPRP	0.111
RRIRYRPPRLPRPRPRPVQTPRP	-0.00992
RRIRCRPPRLPRPRPRPWKGPRP	-0.0267
RRIRARPPRLPRPRPRPVNDPRP	0.584
RRIRMRPPRLPRPRPRPVMDPRP	0.025
RRIRERPPRLPRPRPRPTSWPRP	0.0831
RRIRPRPPRLPRPRPRPMQLPRP	0.406
RRIRPRPPRLPRPRPRPACSPRP	0.184

Sequence	shrunken log2 fold change
RRIRMRPPRLPRPRPRPSENPRP	-0.0243
RRIRMRPPRLPRPRPRPAIAPRP	1.25
RRIRDRPPRLPRPRPRPQKFPRP	-0.0467
RRIRWRPPRLPRPRPRPKWFPRP	0.257
RRIRDRPPRLPRPRPRPFASPRP	-0.0205
RRIRVRPPRLPRPRPRPQNKPRP	-0.497
RRIRHRPPRLPRPRPRPWMDPRP	0.113
RRIRARPPRLPRPRPRPDKDPRP	0.083
RRIRSRPPRLPRPRPRPKVVPRP	0.00912
RRIRLRPPRLPRPRPRPWNGPRP	-0.217
RRIRHRPPRLPRPRPRPWTVPRP	-0.217
RRIRGRPPRLPRPRPRPVRVPRP	0.856
RRIRQRPPRLPRPRPRPYMCPRP	-0.184
RRIRTRPPRLPRPRPRPMHIPRP	-0.158
RRIRARPPRLPRPRPRPYKMPRP	-0.821
RRIRLRPPRLPRPRPRPFMDPRP	-0.361
RRIRLRPPRLPRPRPRPNTAPRP	-0.248
RRIRERPPRLPRPRPRPDSCPRP	-0.149
RRIRDRPPRLPRPRPRPNPPPRP	0.2
RRIRYRPPRLPRPRPRPILCPRP	-0.0389
RRIRMRPPRLPRPRPRPPECPRP	0.369
RRIRMRPPRLPRPRPRPSGNPRP	-0.14

Sequence	shrunken log2 fold change
RRIRERPPRLPRPRPRPHVYPRP	-0.764
RRIRCRPPRLPRPRPRPEQLPRP	0.407
RRIRVRPPRLPRPRPRPIGIPRP	-0.415
RRIRCRPPRLPRPRPRPISNPRP	-0.145
RRIRARPPRLPRPRPRPISHPRP	-0.131
RRIRIRPPRLPRPRPRPYMNPRP	-0.712
RRIRYRPPRLPRPRPRPHDSPRP	-0.08
RRIRARPPRLPRPRPRPTAWPRP	0.863
RRIRFRPPRLPRPRPRPHWKPRP	-0.162
RRIRHRPPRLPRPRPRPSARPRP	-0.223
RRIRHRPPRLPRPRPRPPRSPRP	0.704
RRIRERPPRLPRPRPRPMLEPRP	0.282
RRIRPRPPRLPRPRPRPNIEPRP	-0.294
RRIRWRPPRLPRPRPRPMYQPRP	-0.0254
RRIRVRPPRLPRPRPRPILHPRP	1.12
RRIRIRPPRLPRPRPRPCDVPRP	-0.124
RRIRDRPPRLPRPRPRPMTIPRP	0.0371
RRIRTRPPRLPRPRPRPGMVPRP	0.279
RRIRARPPRLPRPRPRPHCEPRP	-0.113
RRIRPRPPRLPRPRPRPQYWPRP	-0.0415
RRIRNRPPRLPRPRPRPKIQPRP	-0.367
RRIRARPPRLPRPRPRPAPDPRP	0.93

Sequence	shrunken log2 fold change
RRIRHRPPRLPRPRPRPMFLPRP	-0.797
RRIRFRPPRLPRPRPRPGIIPRP	-0.139
RRIRERPPRLPRPRPRPRGFPRP	-0.0872
RRIRCRPPRLPRPRPRPAHLPRP	-0.104
RRIRTRPPRLPRPRPRPMFPPRP	0.0617
RRIRGRPPRLPRPRPRPVPIPRP	0.372
RRIRVRPPRLPRPRPRPMWGPRP	-0.174
RRIRRRPPRLPRPRPRPIGMPRP	-0.0232
RRIRFRPPRLPRPRPRPWAIPRP	0.268
RRIRERPPRLPRPRPRPMSAPRP	0.00792
RRIRCRPPRLPRPRPRPYRCPRP	-0.282
RRIRQRPPRLPRPRPRPNDLPRP	-0.0128
RRIRTRPPRLPRPRPRPDLWPRP	0.27
RRIRTRPPRLPRPRPRPSMDPRP	2.57e-05
RRIRTRPPRLPRPRPRPVNVPRP	-0.172
RRIRQRPPRLPRPRPRPPDAPRP	0.228
RRIRNRPPRLPRPRPRPSSSPRP	-0.0202
RRIRERPPRLPRPRPRPRTTPRP	0.00749
RRIRRRPPRLPRPRPRPRPPPRP	0.931
RRIRVRPPRLPRPRPRPDITPRP	-0.305
RRIRVRPPRLPRPRPRPFFPPRP	-0.0751
